Data reported in the supplement of paper PMC5998384.

Key:
HeLa Kyoto [1] = assay: solubility change mitosis vs G1/S (difference of NP-40 vs SDS log2 ratios) (log2 ratio difference); higher = more soluble in mitosis
HeLa Kyoto [2] = assay: melting temperature (median over replicates), in situ; higher = more thermally stable
HeLa Kyoto [3] = assay: solubility in G1/S (NP-40 vs SDS abundance) (log2 ratio); higher = more soluble; settings: cell cycle stage: G1/S
HeLa Kyoto [4] = assay: thermal stability score vs G1/S (z-score of summed log2 fold changes over temperatures); higher = more thermally stable than in G1/S
[5] = cell cycle stage: early G1 (4.5 h after nocodazole release)
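For melting temperature (median over replicates), in situ in this document: HeLa Kyoto cells synchronized by double thymidine or nocodazole block, proteins quantified by TMT10plex mass spectrometry, three independent biological replicates.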
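For solubility change mitosis vs G1/S (difference of NP-40 vs SDS log2 ratios) in this document: synchronized HeLa Kyoto cells (double thymidine block for G1/S, nocodazole release for mitosis), protein amounts in NP-40 versus SDS lysates quantified by mass spectrometry, three biological replicates.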
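For solubility in G1/S (NP-40 vs SDS abundance) in this document: HeLa Kyoto cells arrested at G1/S by double thymidine block, proteins quantified by TMT10plex mass spectrometry in mild NP-40 versus SDS extracts, three biological replicates.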
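For thermal stability score vs G1/S (z-score of summed log2 fold changes over temperatures) in this document: synchronized HeLa Kyoto cells, proteins quantified by TMT10plex mass spectrometry, three biological replicates, mitosis taken 0.5 h after nocodazole release, G1/S directly after double thymidine block.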

Sequence	solubility change mitosis (log2) (HeLa Kyoto [1])	melting temperature (HeLa Kyoto [2]; cell cycle stage: G1/S) [°C]	melting temperature (HeLa Kyoto [2]; cell cycle stage: mitosis) [°C]	solubility in G1/S (log2) (HeLa Kyoto [3])	thermal stability score (HeLa Kyoto [4]; [5])	thermal stability score (HeLa Kyoto [4]; cell cycle stage: mitosis)
MRVAVAGCCHGELDKIYETLALAERRGPGPVDLLLCCGDFQAVRNEADLRCMAVPPKYRHMQTFYRYYSGEKKAPVLTLFIGGNHEASNHLQELPYGGWVAPNIYYLGLAGVVKYRGVRIGGISGIFKSHDYRKGHFECPPYNSSTIRSIYHVRNIEVYKLKQLKQPIDIFLSHDWPRSIYHYGNKKQLLKTKSFFRQEVENNTLGSPAASELLEHLKPTYWFSAHLHVKFAALMQHQAKDKGQTARATKFLALDKCLPHRDFLQILEIEHDPSAPDYLEYDIEWLTILRATDDLINVTGRLWNMPENNGLHARWDYSATEEGMKEVLEKLNHDLKVPCNFSVTAACYDPSKPQTQMQLIHRINPQTTEFCAQLGIIDINVRLQKSKEEHHVCGEYEEQDDVESNDSGEDQSEYNTDTSALSSINPDEIMLDEEEDEDSIVSAHSGMNTPSVEPSDQASEFSASFSDVRILPGSMIVSSDDTVDSTIDREGKPGGTVESGNGEDLTKVPLKRLSDEHEPEQRKKIKRRNQAIYAAVDDDDDDAA [DBR1]	-0.212	54	55.1	-0.0568	1.33	3.28
MRVESGSAQERGILLESLSTLLEKTTASHEGRAPGNRELTDLLPPEVCSLLNPAAIYANNEISLRDVEVYGFDYDYTLAQYADALHPEIFSTARDILIEHYKYPEGIRKYDYNPSFAIRGLHYDIQKSLLMKIDAFHYVQLGTAYRGLQPVPDEEVIELYGGTQHIPLYQMSGFYGKGPSIKQFMDIFSLPEMALLSCVVDYFLGHSLEFDQAHLYKDVTDAIRDVHVKGLMYQWIEQDMEKYILRGDETFAVLSRLVAHGKQLFLITNSPFSFVDKGMRHMVGPDWRQLFDVVIVQADKPSFFTDRRKPFRKLDEKGSLQWDRITRLEKGKIYRQGNLFDFLRLTEWRGPRVLYFGDHLYSDLADLMLRHGWRTGAIIPELEREIRIINTEQYMHSLTWQQALTGLLERMQTYQDAESRQVLAAWMKERQELRCITKALFNAQFGSIFRTFHNPTYFSRRLVRFSDLYMASLSCLLNYRVDFTFYPRRTPLQHEAPLWMDQLCTGCMKTPFLGDMAHIR [NT5DC2]	-0.0879	53.1	52.6	-0.284	-0.133	0.934
MRWILFIGALIGSSICGQEKFFGDQVLRINVRNGDEISKLSQLVNSNNLKLNFWKSPSSFNRPVDVLVPSVSLQAFKSFLRSQGLEYAVTIEDLQALLDNEDDEMQHNEGQERSSNNFNYGAYHSLEAIYHEMDNIAADFPDLARRVKIGHSFENRPMYVLKFSTGKGVRRPAVWLNAGIHSREWISQATAIWTARKIVSDYQRDPAITSILEKMDIFLLPVANPDGYVYTQTQNRLWRKTRSRNPGSSCIGADPNRNWNASFAGKGASDNPCSEVYHGPHANSEVEVKSVVDFIQKHGNFKGFIDLHSYSQLLMYPYGYSVKKAPDAEELDKVARLAAKALASVSGTEYQVGPTCTTVYPASGSSIDWAYDNGIKFAFTFELRDTGTYGFLLPANQIIPTAEETWLGLKTIMEHVRDNLY [CPA4]	0.0829	57.4	58.7	0.184	1.94	1.93
MSADAAAGAPLPRLCCLEKGPNGYGFHLHGEKGKLGQYIRLVEPGSPAEKAGLLAGDRLVEVNGENVEKETHQQVVSRIRAALNAVRLLVVDPETDEQLQKLGVQVREELLRAQEAPGQAEPPAAAEVQGAGNENEPREADKSHPEQRELRPRLCTMKKGPSGYGFNLHSDKSKPGQFIRSVDPDSPAEASGLRAQDRIVEVNGVCMEGKQHGDVVSAIRAGGDETKLLVVDRETDEFFKKCRVIPSQEHLNGPLPVPFTNGEIQKENSREALAEAALESPRPALVRSASSDTSEELNSQDSPPKQDSTAPSSTSSSDPILDFNISLAMAKERAHQKRSSKRAPQMDWSKKNELFSNL [SLC9A3R1]	-0.0214	56.5	57.1	0.536	-1.17	-0.944
MSADGAEADGSTQVTVEEPVQQPSVVDRVASMPLISSTCDMVSAAYASTKESYPHIKTVCDAAEKGVRTLTAAAVSGAQPILSKLEPQIASASEYAHRGLDKLEENLPILQQPTEKVLADTKELVSSKVSGAQEMVSSAKDTVATQLSEAVDATRGAVQSGVDKTKSVVTGGVQSVMGSRLGQMVLSGVDTVLGKSEEWADNHLPLTDAELARIATSLDGFDVASVQQQRQEQSYFVRLGSLSERLRQHAYEHSLGKLRATKQRAQEALLQLSQVLSLMETVKQGVDQKLVEGQEKLHQMWLSWNQKQLQGPEKEPPKPEQVESRALTMFRDIAQQLQATCTSLGSSIQGLPTNVKDQVQQARRQVEDLQATFSSIHSFQDLSSSILAQSRERVASAREALDHMVEYVAQNTPVTWLVGPFAPGITEKAPEEKK [PLIN3]	0.0467	56.7	57.3	0.715	-0.144	0.126
